The values below come from paper PMC10042821, “Cryo-EM structure of human eIF5A-DHS complex reveals the molecular basis of hypusination-associated neurodegenerative disorders” (Nature Communications, 2023).

What all share (assay): MST; His-tagged DHS variants labelled with RED-tris-NTA 2nd Generation, 8.32 nM; eIF5A titrated, sixteen dilutions 0.00175–57.5 μM; 50 mM Tris, 200 mM NaCl, 5 mM β-ME pH 8; Monolith NT.115, 40% excitation power, 60% MST power; no NAD or SPD
Conditions in all cases: both partners purified

Test [1] concerns the target T1, deoxyhypusine synthase Y250A, His-tagged (human, UniProt P49366 1-369, Y250A, RED-tris-NTA 2nd Generation dye on the His tag).
T1 construct: human deoxyhypusine synthase, Uniprot P49366, residues 1-369, site-directed mutant of the pET24d full-length construct; also called DHS Y250A; source: E. coli, purified; not shown: 6xHis, N-terminal, kept
T1 sequence (looked up): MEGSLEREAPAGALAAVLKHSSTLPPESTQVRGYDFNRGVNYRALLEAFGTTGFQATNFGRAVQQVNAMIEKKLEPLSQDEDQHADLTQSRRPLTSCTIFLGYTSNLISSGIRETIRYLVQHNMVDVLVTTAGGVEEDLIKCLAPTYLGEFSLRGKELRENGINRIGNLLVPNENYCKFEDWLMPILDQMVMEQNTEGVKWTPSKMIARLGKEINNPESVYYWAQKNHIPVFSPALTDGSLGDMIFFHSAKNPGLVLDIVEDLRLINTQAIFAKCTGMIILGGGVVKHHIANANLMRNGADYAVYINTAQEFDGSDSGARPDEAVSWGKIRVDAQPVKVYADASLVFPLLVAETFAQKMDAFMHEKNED

The target of test [2] is T2, deoxyhypusine synthase F272A, His-tagged (human, UniProt P49366 1-369, F272A, RED-tris-NTA 2nd Generation dye on the His tag).
T2 construct: human deoxyhypusine synthase, Uniprot P49366, residues 1-369, site-directed mutant of the pET24d full-length construct; also called DHS F272A; source: E. coli, purified; not shown: 6xHis, N-terminal, kept
T2 sequence (looked up): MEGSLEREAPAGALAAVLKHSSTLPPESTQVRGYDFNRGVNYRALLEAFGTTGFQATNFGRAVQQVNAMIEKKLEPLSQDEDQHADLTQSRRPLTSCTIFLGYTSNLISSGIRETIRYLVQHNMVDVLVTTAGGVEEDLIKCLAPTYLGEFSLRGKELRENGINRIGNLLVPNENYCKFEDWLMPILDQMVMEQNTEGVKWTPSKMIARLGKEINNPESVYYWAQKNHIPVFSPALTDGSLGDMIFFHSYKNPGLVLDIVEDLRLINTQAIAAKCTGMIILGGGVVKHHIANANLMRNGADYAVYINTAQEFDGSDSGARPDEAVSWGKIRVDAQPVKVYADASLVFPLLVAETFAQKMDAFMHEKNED

Test [3] has as its target T3, deoxyhypusine synthase Y176A, His-tagged (human, UniProt P49366 1-369, Y176A, RED-tris-NTA 2nd Generation dye on the His tag).
T3 construct: human deoxyhypusine synthase, Uniprot P49366, residues 1-369, site-directed mutant of the pET24d full-length construct; also called DHS Y176A; source: E. coli, purified; not shown: 6xHis, N-terminal, kept
T3 sequence (looked up): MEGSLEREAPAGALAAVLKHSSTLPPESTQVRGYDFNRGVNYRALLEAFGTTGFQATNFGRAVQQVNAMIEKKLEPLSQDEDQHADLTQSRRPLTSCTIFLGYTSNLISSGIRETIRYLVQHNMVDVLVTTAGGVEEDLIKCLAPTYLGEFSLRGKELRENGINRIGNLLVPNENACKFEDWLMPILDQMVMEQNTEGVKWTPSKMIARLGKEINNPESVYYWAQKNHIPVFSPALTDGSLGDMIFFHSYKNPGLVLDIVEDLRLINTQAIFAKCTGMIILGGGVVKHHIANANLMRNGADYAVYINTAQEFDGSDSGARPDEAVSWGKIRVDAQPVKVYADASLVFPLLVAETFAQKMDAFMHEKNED

Test [4] concerns the target T4, deoxyhypusine synthase I271A, His-tagged (human, UniProt P49366 1-369, I271A, RED-tris-NTA 2nd Generation dye on the His tag).
T4 construct: human deoxyhypusine synthase, Uniprot P49366, residues 1-369, site-directed mutant of the pET24d full-length construct; also called DHS I271A; source: E. coli, purified; not shown: 6xHis, N-terminal, kept
T4 sequence (looked up): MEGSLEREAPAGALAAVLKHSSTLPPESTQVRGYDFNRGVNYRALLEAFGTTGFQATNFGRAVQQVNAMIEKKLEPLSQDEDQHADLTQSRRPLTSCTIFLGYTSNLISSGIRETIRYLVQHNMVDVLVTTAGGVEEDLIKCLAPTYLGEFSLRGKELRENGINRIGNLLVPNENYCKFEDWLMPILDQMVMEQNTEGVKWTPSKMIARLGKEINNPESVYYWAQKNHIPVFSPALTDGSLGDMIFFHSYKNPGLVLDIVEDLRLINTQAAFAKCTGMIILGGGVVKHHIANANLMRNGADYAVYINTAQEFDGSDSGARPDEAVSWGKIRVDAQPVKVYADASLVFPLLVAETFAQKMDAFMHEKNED

B1: eukaryotic translation factor 5A (eIF5A-1), residues 15-151 (domain or fragment)
chain: not shown
notes: human eIF5A1, residues 15-151, from pET28-MHL (Addgene); The purification protocol removes the tag with TEV; source: E. coli, purified (HisTrap, TEV cleavage, reverse HisTrap, SEC); not shown: His tag, N-terminal, cleaved
With B1, the Kd (commonly the free concentration of one partner at which half of the binding sites on the other are occupied at equilibrium, for simple one-to-one binding) in test [1] is greater than 5 µM; in test [2], 504 ± 154 nM; in test [3], 1090 ± 548 nM; in test [4] it was 56 ± 16 nM.
